Publication PMC11344771, “The Chlamydia pneumoniae effector SemD exploits its host’s endocytic machinery by structural and functional mimicry” (Nature Communications, 2024)

B1: SNX9-SH3 (domain or fragment)
chain: MATKARVMYDFAAEPGNNELTVNEGEIITITNPDVGGGWLEGRNIKGERGLVPTDYVEILPS
B2: Cdc42 bound to a non-hydrolysable GTP analogue (Cdc42_(GppNHp)) (natural protein)
chain: not shown
notes: human CDC42 in pGEX-4T-1; also called Cdc42_(mGppNHp); active Cdc42; source: E. coli Rosetta, purified (Glutathione sepharose, thrombin cleavage), loaded with GppNHp or mGppNHp

Assays:
SemDΔAPH_(67-382) = target: T1, SemDΔAPH_(67-382) (Chlamydia pneumoniae); test: SEC-SAXS; Superdex200 increase 10/300 GL, PBS pH 8.5 + 3 % glycerol, 20 °C; 8 mg/ml SemDΔAPH, 10 mg/ml BR-GBD, 8 mg/ml SemDΔAPH + BR-GBD, 3.3 mg/l SemDΔAPH + SNX9-SH3; conditions: both partners purified
T1 construct: SemD of Chlamydia pneumoniae (382 aa), N-terminally truncated up to and including the APH motif; residues 67-382 (G67-E382); from synthetic semD DNA codon optimised for E. coli; Monomer in solution by SAXS; also called SemDΔAPHHis; source: E. coli BL21 (DE3), purified (Ni-NTA Agarose, SEC); not shown: 10xHis, C-terminal, kept

[1] = target: T2, BR-GBD fused to GFP (BR-GBD_(GFP-His)) (Rattus norvegicus, UniProt O08816 142-273); test: pull-down; GFP-Trap agarose, BR-GBD_(GFP-His) or GFP alone as bait, equimolar test protein, 5 min RT then 30 min 4 °C, washed 6x with 10 mM Tris-HCl, 200 mM NaCl, pH 8.5; immunoblot, Elution:FT ratio normalised to the bait; conditions: both partners purified
T2 construct: amplified from GFP-N-WASP (Addgene #47406), in pDS94; source: E. coli BL21 (DE3), purified (Ni-NTA Agarose); not shown: GFP, C-terminal, kept; 10xHis, C-terminal, kept
T2 sequence (O08816 142-273): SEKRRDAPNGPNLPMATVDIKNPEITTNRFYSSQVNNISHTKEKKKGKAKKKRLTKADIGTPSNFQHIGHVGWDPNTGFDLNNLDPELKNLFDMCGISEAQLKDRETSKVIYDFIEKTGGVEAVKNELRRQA

Binder	stoichiometry N (SemDΔAPH_(67-382))	normalised Elution:FT ratio [1] [%]
B1	1	–
B2	–	~100
